{"source": "paper PMC11316819"}
{"target": "EEEV PE6 virus-like particle (Eastern equine encephalitis virus, strain PE6)", "assay": "BLI", "units": {"Kd": "nM"}}
{"substance": "VLDLR LA4-5-Fc (from UniProt P98155-1 152-236) (Fc fusion)", "Kd": 11900}
{"substance": "ApoER2_(iso2) LA1-3-Fc (Fc fusion)", "Kd": 705}
{"substance": "VLDLR LA3-5-Fc (from UniProt P98155-1 111-236) (Fc fusion)", "Kd": 32.3}
{"substance": "VLDLR LA3-6-Fc (from UniProt P98155-1 111-276) (Fc fusion)", "Kd": 71.5}
{"substance": "VLDLR LA5-6-Fc (from UniProt P98155-1 191-275) (Fc fusion)", "Kd": 4200}
{"substance": "VLDLR LA1-3-Fc (from UniProt P98155-1 28-152) (Fc fusion)", "Kd": 363}
{"substance": "VLDLR LA1-2-Fc (from UniProt P98155-1 28-113) (Fc fusion)", "Kd": 505}
{"substance": "VLDLR LA4-6-Fc (from UniProt P98155-1 152-275) (Fc fusion)", "Kd": 2300}
{"substance": "S. vulgaris VLDLR LA1-8-Fc (Fc fusion)", "Kd": 11}
{"substance": "VLDLR LA2-3-Fc (from UniProt P98155-1 70-151) (Fc fusion)", "Kd": 1800}
{"substance": "VLDLR LA2-4-Fc (from UniProt P98155-1 70-190) (Fc fusion)", "Kd": 1100}
{"substance": "VLDLR LA2-5-Fc (from UniProt P98155-1 70-231) (Fc fusion)", "Kd": 42.5}
{"substance": "VLDLR LA3-4-Fc (from UniProt P98155-1 111-190) (Fc fusion)", "Kd": 3900}
